Patent publication US20200239556A1 (BIOVERATIV USA, published 2020)

Columns and labels:
human Factor Bb = target: T1, human Factor Bb (human, UniProt P00751 260-764); test: direct ELISA screen of hybridoma clones on fBb
T1 construct: The protein in the assay was purified human Factor Bb; also called fBb

[1] = target: T2, full length human Complement Factor B (human, UniProt P00751 26-764); test: ELISA, antigen coated on the plate, HRP goat anti-mouse detection
T2 construct: also called fB; FB
T2 sequence (P00751 26-764 limits assumed): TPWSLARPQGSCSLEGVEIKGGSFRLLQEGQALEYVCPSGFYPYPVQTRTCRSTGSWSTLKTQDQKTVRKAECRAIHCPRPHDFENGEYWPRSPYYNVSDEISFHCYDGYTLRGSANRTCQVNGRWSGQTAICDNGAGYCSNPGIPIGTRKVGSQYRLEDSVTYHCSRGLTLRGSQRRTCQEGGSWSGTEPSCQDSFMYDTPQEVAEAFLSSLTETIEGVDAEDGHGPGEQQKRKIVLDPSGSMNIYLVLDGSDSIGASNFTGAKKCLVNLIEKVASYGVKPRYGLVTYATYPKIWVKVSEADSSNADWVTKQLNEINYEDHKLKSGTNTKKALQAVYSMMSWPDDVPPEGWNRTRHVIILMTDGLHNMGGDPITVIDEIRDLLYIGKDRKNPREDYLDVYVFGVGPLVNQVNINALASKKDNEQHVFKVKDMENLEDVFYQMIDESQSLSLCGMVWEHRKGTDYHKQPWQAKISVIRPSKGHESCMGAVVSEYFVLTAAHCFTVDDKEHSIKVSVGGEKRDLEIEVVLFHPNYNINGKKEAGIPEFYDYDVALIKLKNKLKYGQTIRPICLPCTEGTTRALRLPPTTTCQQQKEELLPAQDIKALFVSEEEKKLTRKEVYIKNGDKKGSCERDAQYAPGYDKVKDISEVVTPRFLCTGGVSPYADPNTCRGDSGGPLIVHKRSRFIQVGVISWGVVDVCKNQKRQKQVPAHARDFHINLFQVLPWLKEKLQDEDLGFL

T1 sequence (P00751 260-764 limits assumed): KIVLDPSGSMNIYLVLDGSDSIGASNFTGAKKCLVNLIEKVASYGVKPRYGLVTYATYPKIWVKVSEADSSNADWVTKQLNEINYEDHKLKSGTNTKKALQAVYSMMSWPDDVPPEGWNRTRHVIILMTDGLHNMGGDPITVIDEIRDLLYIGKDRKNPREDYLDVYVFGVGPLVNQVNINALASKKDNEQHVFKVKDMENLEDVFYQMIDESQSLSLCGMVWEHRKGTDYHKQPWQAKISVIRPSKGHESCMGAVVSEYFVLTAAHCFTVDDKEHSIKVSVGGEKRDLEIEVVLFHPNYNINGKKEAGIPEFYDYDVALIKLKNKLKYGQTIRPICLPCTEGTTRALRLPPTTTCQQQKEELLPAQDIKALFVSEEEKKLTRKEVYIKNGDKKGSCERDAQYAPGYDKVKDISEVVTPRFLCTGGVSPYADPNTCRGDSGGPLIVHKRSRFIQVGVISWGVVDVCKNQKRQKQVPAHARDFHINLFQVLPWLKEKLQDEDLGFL

B1: anti-Factor B Ab (antibody, V domains shown)
VH: EVQLQQSGPELVKPGASVKMSCKASGYSFTDYLMNWVKQSHGKSLEWIGRINPYNGDAFYNQRFKGKATLTVDKSSSTAHMELRSLTSEDSALYYCARLENDYGFTYWGQGTLVTVSA
VL: DIVMTQAAFSNPVTLGTSASISCSSSKSLLHSNGITYLYWYLQRPGQSPQLLIYRMSNLASGVPDRFSGSGSGTDFTLRISRVEAEDVGVYYCAQMLERPWTFGGGTKLEIK
notes: Mouse monoclonal antibody purified from hybridoma supernatant (NZBW mice immunised with fBb); also called FBb Ab; anti-Factor B antibody
- binding result (human Factor Bb): binds
- binding result [1]: binds
